Consider 4 molecules from PMC10213629 (2023).

The labels stand for the following.
B1: CrcA (PA1677), His-tag removed (natural protein)
chain: MPHPLTLLQISGRGYPPAPLRQSTLLIIDAQEEYRSGALRLPGLDAAAAEIGVLVQAARASGTPIVHVRHLGIQGGLFDPQGPRGQFLPELQPEAGEKVVEKRLPNAFSGTELHDLLQNHGRLDLIVCGFMTHSSVSTTVRAAKDYGYRCTLADSACATRDIPTLNGGVLSAADLQRAEIAALGDNFAAIVAQARELL
B2: Crc (catabolite repression control protein), His-tag removed (natural protein)
chain: MRIISVNVNGIQAAAERGLLSWLQAQNADVICLQDTRASAFDLDDPSFQLDGYFLYACDAELPEQGGVALYSRLQPKAVISGLGFETADRYGRYLQADFDKVSIATLLLPSGQSGDESLNQKFKFMDDFTHYLSKQRRKRREYIYCGSLYVAHQKMDVKNWRECQQMPGFLAPERAWLDEVFGNLGYADALREVSREGDQFSWWPDSEQAEMLNLGWRFDYQVLTPGLRRFVRNAKLPRQPRFSQHAPLIVDYDWQLSI

Assay [1] addresses B1. In words: grating-coupled interferometry; CrcA immobilised (9.5 ng/mm^2); Crc 20 μM to 156.25 nM; ES-buffer, 25°C; equilibration curve analysis.
The target of assay [2] is B1. Nature of the assay: grating-coupled interferometry; CrcA immobilised by amine coupling (9.5 ng/mm^2); Crc 20 μM to 156.25 nM; ES-buffer, 25°C; heterogeneous ligand model.
For assay [3], the target named is Strep-CrcA (Strep-PA1677; catabolite repression control protein antagonist) (Pseudomonas aeruginosa PAO1). Nature of the assay: SEC-MALS; Strep-CrcA; experimental mass compared with the expected mass of a dimer. In general terms: Size exclusion chromatography separates by hydrodynamic size, large species first.
In assay [4] the target is B2. Nature of the assay: immobilized CrcA; kd2 heterogeneous ligand, second site.
Assay [5] concerns the target B2. In words: immobilized CrcA; kd1 heterogeneous ligand.
For assay [6], the target named is B2. In words: immobilized CrcA; KD2 heterogeneous ligand, second site.
The target of assay [7] is Crc (catabolite repression control protein), His-tag removed (Pseudomonas aeruginosa PAO1) (UniProt Q51380). Nature of the assay: grating-coupled interferometry; Crc immobilised by amine coupling (15 pg/mm^2); CrcA 20 μM to 156.25 nM; ES-buffer, 25°C; 1:1 kinetic fit.
The target is the same in assay [8]. In words: grating-coupled interferometry; Crc immobilised (15 pg/mm^2); CrcA 20 μM to 156.25 nM; ES-buffer, 25°C; equilibration curve analysis.
Assay [9] has as its target T1, PAO1 Hfq protein, purified (Pseudomonas aeruginosa PAO1, UniProt Q9HUM0 1-82).
T1 chain: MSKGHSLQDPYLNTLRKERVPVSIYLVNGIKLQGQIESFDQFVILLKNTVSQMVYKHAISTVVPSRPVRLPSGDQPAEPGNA
In words: Hfq in complex with amiE6ARN RNA; KD1 heterogeneous ligand.

Assay [10] concerns the target T1, PAO1 Hfq protein, purified. In words: Hfq in complex with amiE6ARN RNA; kd2 heterogeneous ligand, second site.
Assay [11] concerns the target T1, PAO1 Hfq protein, purified. In words: Hfq in complex with amiE6ARN RNA; kd1 heterogeneous ligand.
Assay [12] deals with B1. In words: immobilized Crc.

For “Crc (catabolite repression control protein), His-tag removed (from UniProt Q51380 1-259) (natural protein)”, the Kd – broadly, the constant that tells how readily two partners part at equilibrium – in [1] amounted to 7.14 µM. The molecule also had a KD1 in assay [2] of 8.35 µM.
Take “Strep-CrcA (Strep-PA1677; catabolite repression control protein antagonist) (natural protein)”: the stoichiometry N – broadly, the number of molecules, sites or subunits per partner or assembly – in [3] was found to be 2.
B1: the koff – broadly, the first-order rate constant of dissociation – in assay [4] came out at 0.0454 s⁻¹; in assay [5], 0.653 s⁻¹. For the same molecule, the dissociation constant (Kd) worked out at 3.93 µM in assay [6], 11 µM in assay [7] and 12 µM in assay [8].
For the molecule B2, in assay [9], the Kd turned out to be 0.402 µM. Moreover, the koff in assay [10] was found to be 0.00786 s⁻¹; in [11] it was 0.374 s⁻¹; in assay [12], 2.45 s⁻¹.
